Experimental findings from publication PMC3765780, “Pyocyanin-induced mucin production is associated with redox modification of FOXA2” are described below.

This data set has as its target T1, FOXA2 (immunoprecipitated from control NCI-H292 cells) (Homo sapiens? (NCI-H292 cells), UniProt Q9Y261 1-457).
T1 sequence: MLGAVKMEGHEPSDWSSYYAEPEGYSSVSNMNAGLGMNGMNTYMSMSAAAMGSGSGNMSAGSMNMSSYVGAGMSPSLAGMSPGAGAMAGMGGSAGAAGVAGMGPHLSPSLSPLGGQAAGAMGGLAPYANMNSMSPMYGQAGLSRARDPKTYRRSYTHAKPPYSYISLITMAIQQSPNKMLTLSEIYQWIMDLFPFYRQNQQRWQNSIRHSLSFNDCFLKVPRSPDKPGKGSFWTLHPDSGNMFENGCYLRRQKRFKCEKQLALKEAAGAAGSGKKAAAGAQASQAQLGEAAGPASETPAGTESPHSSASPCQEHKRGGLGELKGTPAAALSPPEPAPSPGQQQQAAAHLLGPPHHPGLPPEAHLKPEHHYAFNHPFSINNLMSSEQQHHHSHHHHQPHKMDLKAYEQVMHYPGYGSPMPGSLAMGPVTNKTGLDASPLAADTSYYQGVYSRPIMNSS
The data set can be described thus: EMSA; untreated control cells; inhibited by 20-fold unlabeled probe and by anti-FOXA2 antibody; 10 mM Hepes pH 7.9, 1 mM EDTA, 5 mM MgCl2, 10% glycerol, DTT (printed '0.5 m MDTT', probably 0.5 mM), 1 mg/ml BSA, 1 ug poly(dI-dC); 2.5 ug FOXA2; 20 min, room. The following applies: protein: native; blunt. (In general: A gel shift assay detects complexes by their altered migration in electrophoresis.)

B1: MUC5B promoter FOXA2 site probe (dsDNA)
DNA 1: CCTCCCCGAGAGCAAACACACGTGGCTGGA
DNA 2: TCCAGCCACGTGTGTTTGCTCTCGGGGAGG
Take B1: the binding result is “binds”.
